Consider two molecules from US20010049357A1, “Use of Hsp27 as an anti-inflammatory agent” (priority 1999, published 2001).

The subject of data set [1] is Mono Mac 6, a human monocyte cell line. The conditions noted are these: reference 7; cited from earlier work.
Data set [2] can be described thus: Adverse effect of Hsp 25 in normal rats. The format is in vivo. The conditions noted are these: 10 μg in normal rats (~250 gm body weight). As to the method:
Studies were performed to analyze the adverse effect of Hsp 25 (a murine analogue of Hsp27 ) in rats. […] To examine the effects in an animal model, the cecal ligation and puncture model (CLP) in rats can be used. (Chaudry, et al, 1993, In: Schlag, G. and Redl, H. (Eds), Pathophysiology of shock, Sepsis, and Organ Failure. Springer-Verlag, pp. 1048-1059.) CLP induces sepsis in rats. Hsp25 is administered to the CLP animals and the anti-inflammatory effect of Hsp25 in CLP rats is evaluated. The effectiveness of Hsp25 in simultaneously inducing IL-10 and IL-12 in human monocytes in the rat model, is reasonably predictive of the efficacy of Hsp27 as an anti-inflammatory agent in humans.

B1: Hsp 60: Human 60-kDa heat-shock protein, member of the large Hsp family (protein, UniProt P10809 27-573, looked up)
60 kDa heat shock protein, …: AKDVKFGADARALMLQGVDLLADAVAVTMGPKGRTVIIEQSWGSPKVTKDGVTVAKSIDLKDKYKNIGAKLVQDVANNTNEEAGDGTTTATVLARSIAKEGFEKISKGANPVEIRRGVMLAVDAVIAELKKQSKPVTTPEEIAQVATISANGDKEIGNIISDAMKKVGRKGVITVKDGKTLNDELEIIEGMKFDRGYISPYFINTSKGQKCEFQDAYVLLSEKKISSIQSIVPALEIANAHRKPLVIIAEDVDGEALSTLVLNRLKVGLQVVAVKAPGFGDNRKNQLKDMAIATGGAVFGEEGLTLNLEDVQPHDLGKVGEVIVTKDDAMLLKGKGDKAQIEKRIQEIIEQLDVTTSEYEKEKLNERLAKLSDGVAVLKVGGTSDVEVNEKKDRVTDALNATRAAVEEGIVLGGGCALLRCIPALDSLTPANEDQKIGIEIIKRTLKIPAMTIAKNAGVEGSLIVEKIMQSSSEVGYDAMAGDFVNMVEKGIIDPTKVVRTALLDAAGVASLLTTAEVVVTEIPKEEKDPGMGAMGGMGGGMGGGMF
As for B1, the TNFα induced result in data set [1] is “approximately 750 pg/ml”.

B2: Hsp25: a murine analogue of Hsp27 (protein, UniProt P14602 1-209, looked up)
Heat shock protein beta-1: MTERRVPFSLLRSPSWEPFRDWYPAHSRLFDQAFGVPRLPDEWSQWFSAAGWPGYVRPLPAATAEGPAAVTLAAPAFSRALNRQLSSGVSEIRQTADRWRVSLDVNHFAPEELTVKTKEGVVEITGKHEERQDEHGYISRCFTRKYTLPPGVDPTLVSSSLSPEGTLTVEAPLPKAVTQSAEITIPVTFEARAQIGGPEAGKSEQSGAK
With B2, the adverse effects entry in data set [2] is “did not induce any adverse effects”.
